Consider one molecule from PMC8600091.

Data set [1] concerns the target MBD2 MBD R166K/R188K (Homo sapiens, UniProt Q9UBB5 143-220, R166K;R188K). Kind of data set: ITC.
In data set [2] the target is MBD2 MBD R188K (Homo sapiens, UniProt Q9UBB5 143-220, R188K). Kind of data set: ITC. (In general: In ITC the heat of successive injections is recorded.)
Sequence of MBD2 MBD R188K (Q9UBB5 143-220 R188K): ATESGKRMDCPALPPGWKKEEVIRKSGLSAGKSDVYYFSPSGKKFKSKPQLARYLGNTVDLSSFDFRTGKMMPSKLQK

Sequence of MBD2 MBD R166K/R188K (Q9UBB5 143-220 R166K/R188K): as the sequence (Q9UBB5 143-220 R188K) above, with R24K counted along it

B1: mCG dsDNA 12mer (dsDNA)
DNA 1: GCCAACGTTGGC
DNA 2: GCCAACGTTGGC
modifications: 5-methyl-C at position 6 of both strands
As a reminder, the Kd is a measure of binding affinity in units of concentration. Higher therefore signals a looser complex. As to B1, the binding result in data set [1] is on record as “no binding”. Besides, in data set [2], the Kd amounted to 7.5 ± 0.4 µM.
